Laboratory results taken from the supplement of paper PMC10266784.

B1: library; numbered along this chain (parent)
chain: MAAAAAAAAEQQSSNGPVKKSMREKAVERRSVNKEHNSNFKAGYIPIDEDRLHKTGLRGRKGNLAICVIILLFILAVINLIITLVIWAVIRIGPNGCDSMEFHESGLLRFKQVSDMGVIHPLYKSTVGGRRNENLVITGNNQPIVFQQGTTKLSVENNKTSITSDIGMQFFDPRTQNILFSTDYETHEFHLPSGVKSLNVQKASTERITSNATSDLNIKVDGRAIVRGNEGVFIMGKTIEFHMGGNMELKAENSIILNGSVMVSTTRLPSSSSGDQLGSGDWVRYKLCMCADGTLFKVQVTSQNMGCQISDNPCGNTH

Variants of: B1
Assay: SGCB cell-surface expression functional score (HA stain, bin4 vs bin1, normalised to synonymous) (log10 ratio); higher = more cell-surface SGCB (functional)
In short: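 HEK293 cells stably expressing alpha-, gamma- and delta-sarcoglycan received codon-saturation libraries of HA-tagged, YFP-fused human beta-sarcoglycan by lentiviral transduction at MOI <0.1, performed in duplicate. Cells positive for YFP were sorted after 72 hours and cultured for 5–7 days, then stained on ice with Alexa Fluor 647 anti-HA and fixed. Fixed cells were sorted into four 5% intensity bins and amplicon-sequenced, and the log ratio of highest-bin to lowest-bin variant frequency, as a median over codons and transductions, gives the functional score. Per section, synonymous variants were scaled to mean 0, SD 0.5.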

For MAAAAAAAAEQQSSNGPVKKSMREKAVERRSVNKEHNSNFKAGYIPIDKDRLHKTGLRGRKGNLAICVIILLFILAVINLIITLVIWAVIRIGPNGCDSMEFHESGLLRFKQVSDMGVIHPLYKSTVGGRRNENLVITGNNQPIVFQQGTTKLSVENNKTSITSDIGMQFFDPRTQNILFSTDYETHEFHLPSGVKSLNVQKASTERITSNATSDLNIKVDGRAIVRGNEGVFIMGKTIEFHMGGNMELKAENSIILNGSVMVSTTRLPSSSSGDQLGSGDWVRYKLCMCADGTLFKVQVTSQNMGCQISDNPCGNTH [E49K], which “SGCB cell-surface expression functional score (log10)” value is on record?
The value was 0.42.

For MAAAAAAAAEQQSSNGPVKKSMREKAVERRSVNKEHNSNFKAGYIPIDHDRLHKTGLRGRKGNLAICVIILLFILAVINLIITLVIWAVIRIGPNGCDSMEFHESGLLRFKQVSDMGVIHPLYKSTVGGRRNENLVITGNNQPIVFQQGTTKLSVENNKTSITSDIGMQFFDPRTQNILFSTDYETHEFHLPSGVKSLNVQKASTERITSNATSDLNIKVDGRAIVRGNEGVFIMGKTIEFHMGGNMELKAENSIILNGSVMVSTTRLPSSSSGDQLGSGDWVRYKLCMCADGTLFKVQVTSQNMGCQISDNPCGNTH [E49H], which “SGCB cell-surface expression functional score (log10)” value is on record?
Its value is -0.23.

For MAAAAAAAAEQQSSNGPVKKSMREKAVERRSVNKEHNSNFKAGYIPIDPDRLHKTGLRGRKGNLAICVIILLFILAVINLIITLVIWAVIRIGPNGCDSMEFHESGLLRFKQVSDMGVIHPLYKSTVGGRRNENLVITGNNQPIVFQQGTTKLSVENNKTSITSDIGMQFFDPRTQNILFSTDYETHEFHLPSGVKSLNVQKASTERITSNATSDLNIKVDGRAIVRGNEGVFIMGKTIEFHMGGNMELKAENSIILNGSVMVSTTRLPSSSSGDQLGSGDWVRYKLCMCADGTLFKVQVTSQNMGCQISDNPCGNTH [E49P], which “SGCB cell-surface expression functional score (log10)” value is on record?
Its value is 0.54.

Which “SGCB cell-surface expression functional score (log10)” value does the source give for MAAAAAAAAEQQSSNGPVKKSMREKAVERRSVNKEHNSNFKAGYIPIDIDRLHKTGLRGRKGNLAICVIILLFILAVINLIITLVIWAVIRIGPNGCDSMEFHESGLLRFKQVSDMGVIHPLYKSTVGGRRNENLVITGNNQPIVFQQGTTKLSVENNKTSITSDIGMQFFDPRTQNILFSTDYETHEFHLPSGVKSLNVQKASTERITSNATSDLNIKVDGRAIVRGNEGVFIMGKTIEFHMGGNMELKAENSIILNGSVMVSTTRLPSSSSGDQLGSGDWVRYKLCMCADGTLFKVQVTSQNMGCQISDNPCGNTH [E49I] here?
The value was 0.51.

For MAAAAAAAAEQQSSNGPVKKSMREKAVERRSVNKEHNSNFKAGYIPIDGDRLHKTGLRGRKGNLAICVIILLFILAVINLIITLVIWAVIRIGPNGCDSMEFHESGLLRFKQVSDMGVIHPLYKSTVGGRRNENLVITGNNQPIVFQQGTTKLSVENNKTSITSDIGMQFFDPRTQNILFSTDYETHEFHLPSGVKSLNVQKASTERITSNATSDLNIKVDGRAIVRGNEGVFIMGKTIEFHMGGNMELKAENSIILNGSVMVSTTRLPSSSSGDQLGSGDWVRYKLCMCADGTLFKVQVTSQNMGCQISDNPCGNTH [E49G], which “SGCB cell-surface expression functional score (log10)” value is on record?
The value was 0.17.

With MAAAAAAAAEQQSSNGPVKKSMREKAVERRSVNKEHNSNFKAGYIPIDRDRLHKTGLRGRKGNLAICVIILLFILAVINLIITLVIWAVIRIGPNGCDSMEFHESGLLRFKQVSDMGVIHPLYKSTVGGRRNENLVITGNNQPIVFQQGTTKLSVENNKTSITSDIGMQFFDPRTQNILFSTDYETHEFHLPSGVKSLNVQKASTERITSNATSDLNIKVDGRAIVRGNEGVFIMGKTIEFHMGGNMELKAENSIILNGSVMVSTTRLPSSSSGDQLGSGDWVRYKLCMCADGTLFKVQVTSQNMGCQISDNPCGNTH [E49R] as the variant, how does the “SGCB cell-surface expression functional score (log10)” value read?
Its value is 0.35.

With MAAAAAAAAEQQSSNGPVKKSMREKAVERRSVNKEHNSNFKAGYIPIDEFRLHKTGLRGRKGNLAICVIILLFILAVINLIITLVIWAVIRIGPNGCDSMEFHESGLLRFKQVSDMGVIHPLYKSTVGGRRNENLVITGNNQPIVFQQGTTKLSVENNKTSITSDIGMQFFDPRTQNILFSTDYETHEFHLPSGVKSLNVQKASTERITSNATSDLNIKVDGRAIVRGNEGVFIMGKTIEFHMGGNMELKAENSIILNGSVMVSTTRLPSSSSGDQLGSGDWVRYKLCMCADGTLFKVQVTSQNMGCQISDNPCGNTH [D50F] as the variant, how does the “SGCB cell-surface expression functional score (log10)” value read?
Its value is 0.27.

Which “SGCB cell-surface expression functional score (log10)” value does the source give for MAAAAAAAAEQQSSNGPVKKSMREKAVERRSVNKEHNSNFKAGYIPIDEARLHKTGLRGRKGNLAICVIILLFILAVINLIITLVIWAVIRIGPNGCDSMEFHESGLLRFKQVSDMGVIHPLYKSTVGGRRNENLVITGNNQPIVFQQGTTKLSVENNKTSITSDIGMQFFDPRTQNILFSTDYETHEFHLPSGVKSLNVQKASTERITSNATSDLNIKVDGRAIVRGNEGVFIMGKTIEFHMGGNMELKAENSIILNGSVMVSTTRLPSSSSGDQLGSGDWVRYKLCMCADGTLFKVQVTSQNMGCQISDNPCGNTH [D50A] here?
Its value is 0.14.

With MAAAAAAAAEQQSSNGPVKKSMREKAVERRSVNKEHNSNFKAGYIPIDECRLHKTGLRGRKGNLAICVIILLFILAVINLIITLVIWAVIRIGPNGCDSMEFHESGLLRFKQVSDMGVIHPLYKSTVGGRRNENLVITGNNQPIVFQQGTTKLSVENNKTSITSDIGMQFFDPRTQNILFSTDYETHEFHLPSGVKSLNVQKASTERITSNATSDLNIKVDGRAIVRGNEGVFIMGKTIEFHMGGNMELKAENSIILNGSVMVSTTRLPSSSSGDQLGSGDWVRYKLCMCADGTLFKVQVTSQNMGCQISDNPCGNTH [D50C] as the variant, how does the “SGCB cell-surface expression functional score (log10)” value read?
Its value is 0.

For MAAAAAAAAEQQSSNGPVKKSMREKAVERRSVNKEHNSNFKAGYIPIDEERLHKTGLRGRKGNLAICVIILLFILAVINLIITLVIWAVIRIGPNGCDSMEFHESGLLRFKQVSDMGVIHPLYKSTVGGRRNENLVITGNNQPIVFQQGTTKLSVENNKTSITSDIGMQFFDPRTQNILFSTDYETHEFHLPSGVKSLNVQKASTERITSNATSDLNIKVDGRAIVRGNEGVFIMGKTIEFHMGGNMELKAENSIILNGSVMVSTTRLPSSSSGDQLGSGDWVRYKLCMCADGTLFKVQVTSQNMGCQISDNPCGNTH [D50E], which “SGCB cell-surface expression functional score (log10)” value is on record?
Its value is 0.3.
